In one series the target is T1, LlGH31_u1 (Lactococcus cremoris, UniProt A2RM80).
T1 construct: gene xylS; full length (no signal peptide), N-terminal His tag, pET28a, E. coli BL21(DE3); Tyr99 of the adjacent protomer reaches the active site
T1 sequence (A2RM80 1-739): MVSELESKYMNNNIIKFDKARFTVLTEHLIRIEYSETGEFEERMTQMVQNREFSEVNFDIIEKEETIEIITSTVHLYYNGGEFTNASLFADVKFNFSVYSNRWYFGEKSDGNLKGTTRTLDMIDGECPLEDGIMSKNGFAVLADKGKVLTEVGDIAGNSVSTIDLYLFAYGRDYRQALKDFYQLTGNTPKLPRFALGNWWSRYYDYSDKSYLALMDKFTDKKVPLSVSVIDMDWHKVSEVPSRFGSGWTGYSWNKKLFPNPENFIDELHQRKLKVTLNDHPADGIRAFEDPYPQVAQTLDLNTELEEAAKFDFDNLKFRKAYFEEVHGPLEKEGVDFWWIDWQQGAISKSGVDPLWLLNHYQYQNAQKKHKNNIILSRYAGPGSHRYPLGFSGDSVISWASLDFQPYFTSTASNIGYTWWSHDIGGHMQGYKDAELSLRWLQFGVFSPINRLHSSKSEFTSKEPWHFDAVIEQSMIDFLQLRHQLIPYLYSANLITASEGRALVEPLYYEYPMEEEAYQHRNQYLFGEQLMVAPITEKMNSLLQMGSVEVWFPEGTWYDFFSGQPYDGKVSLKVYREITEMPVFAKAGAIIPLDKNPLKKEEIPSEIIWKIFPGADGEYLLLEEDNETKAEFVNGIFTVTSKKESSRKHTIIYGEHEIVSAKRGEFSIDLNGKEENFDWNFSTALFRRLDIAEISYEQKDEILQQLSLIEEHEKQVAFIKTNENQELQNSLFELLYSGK
Put plainly: X-ray crystal structure of complex (soaked). The format is binding. The conditions noted are these: 100 mM glucose soak, 45 min; subsite −1; both α- and β-anomers modelled.

In series [1] the target is GH31_u1 protein from Lactococcus lactis subsp. cremoris MG1363 (LlGH31_u1), wild type (Lactococcus lactis subsp. cremoris MG1363). The series is described as follows: crystal structure; hanging-drop vapor diffusion at 20 °C, PEG 3350, sodium citrate pH 7.0; crystal form 1 (P2_(1), six molecules in the asymmetric unit) and crystal form 2 (P6_(3)22, one molecule, hexamer by symmetry); unliganded, glucose-soaked or cocrystallised with 10 mM ligands.

Series [2] has the same target. The series is described as follows: SEC; gel filtration on HiLoad 16/60 Superdex 200 prep grade for molecular weight determination; 20 mM sodium phosphate buffer (pH 7.0), 300 mM NaCl. For orientation: Size exclusion chromatography separates by hydrodynamic size, large species first.
The target is the same in series [3]. Put plainly: cryo-EM structure; single-particle analysis; 1.13 μM (as a hexamer) in 20 mM sodium phosphate buffer (pH 7.0), 300 mM NaCl.
Series [4] has as its system O=[N+]([O-])c1ccc(O[C@H]2O[C@H](CO)[C@@H](O)[C@H](O)[C@H]2O)cc1. Put plainly: purified protein. The conditions noted are these: 50 mM sodium phosphate pH 7.0, 50 mM NaCl.
Substrate in the series “purified protein”: O=[N+]([O-])c1ccc(O[C@H]2O[C@H](CO)[C@@H](O)[C@H](O)[C@H]2O)cc1
Put plainly: purified protein. The conditions noted are these: 50 mM sodium phosphate pH 7.0, 50 mM NaCl. The source holds these as a separate data set.

Broadly, the stoichiometry N is the number of molecules, sites or subunits per partner or assembly. The Km is the concentration of substrate that gives half-maximal velocity. A word on the kcat: it is the number of substrate molecules converted per active site and unit of time at saturation. Broadly, the kcat/Km is the second-order rate constant that governs catalysis at low substrate concentration.

`OC[C@H]1OC(O)[C@H](O)[C@@H](O)[C@@H]1O` (some centres unmarked) [glucose]: the “X-ray crystal structure of complex (soaked)” value at LlGH31_u1 is on record as “we determined the crystal structure of WT in complex with glucose (WT-Glc)”.

For “GH31_u1 protein from Lactococcus lactis subsp. cremoris MG1363 (LlGH31_u1), wild type (enzyme)”, the stoichiometry N in series [1], in series [2] and in series [3] was 6 throughout.

With “LlGH31_u1 (Lactococcus cremoris subsp. cremoris MG1363; Y99F)”, in series [4], the Km is given as 28 ± 0.8 mM.

B1: LlGH31_u1 (Lactococcus cremoris subsp. cremoris MG1363) (protein)
chain: T1 sequence (A2RM80 1-739)
With B1, in the series “purified protein”, the Km is 20 ± 0.8 mM, the kcat stood at 31 s⁻¹ and the kcat/Km came out at 1500 M⁻¹ s⁻¹.

The values above are taken from article PMC9061262, “Structural basis of the strict specificity of a bacterial GH31 α-1,3-glucosidase for nigerooligosaccharides” (The Journal of Biological Chemistry, 2022).
